Laboratory results from patent US20200255474.

B1: recombinant MK5 (protein)
chain: MSEESDMDKAIKETSILEEYSINWTQKLGAGISGPVRVCVKKSTQERFALKILLDRPKARNEVRLHMMCATHPNIVQIIEVFANSVQFPHESSPRARLLIVMEMMEGGELFHRISQHRHFTEKQASQVTKQIALALRHCHLLNIAHRDLKPENLLFKDNSLDAPVKLCDFGFAKIDQGDLMTPQFTPYYVAPQVLEAQRRHQKEKSGIIPTSPTPYTYNKSCDLWSLGVIIYVMLCGYPPFYSKHHSRTIPKDMRRKIMTGSFEFPEEEWSQISEMAKDVVRKLLKVKPEERLTIEGVLDHPWLNSTEALDNVLPSAQLMMDKAVVAGIQQAHAEQLANMRIQDLKVSLKPLHSVNNPILRKRKLLGTKPKDSVYIHDHENGAEDSNVALEKLRDVIAQCILPQAGKGENEDEKLNEVMQEAWKYNRECKLLRDTLQSFSWNGRGFTDKVDRLKLAEIVKQVIEEQTTSHESQ
B2: recombinant TTK (protein)
chain: MESEDLSGRELTIDSIMNKVRDIKNKFKNEDLTDELSLNKISADTTDNSGTVNQIMMMANNPEDWLSLLLKLEKNSVPLSDALLNKLIGRYSQAIEALPPDKYGQNESFARIQVRFAELKAIQEPDDARDYFQMARANCKKFAFVHISFAQFELSQGNVKKSKQLLQKAVERGAVPLEMLEIALRNLNLQKKQLLSEEEKKNLSASTVLTAQESFSGSLGHLQNRNNSCDSRGQTTKARFLYGENMPPQDAEIGYRNSLRQTNKTKQSCPFGRVPVNLLNSPDCDVKTDDSVVPCFMKRQTSRSECRDLVVPGSKPSGNDSCELRNLKSVQNSHFKEPLVSDEKSSELIITDSITLKNKTESSLLAKLEETKEYQEPEVPESNQKQWQSKRKSECINQNPAASSNHWQIPELARKVNTEQKHTTFEQPVFSVSKQSPPISTSKWFDPKSICKTPSSNTLDDYMSCFRTPVVKNDFPPACQLSTPYGQPACFQQQQHQILATPLQNLQVLASSSANECISVKGRIYSILKQIGSGGSSKVFQVLNEKKQIYAIKYVNLEEADNQTLDSYRNEIAYLNKLQQHSDKIIRLYDYEITDQYIYMVMECGNIDLNSWLKKKKSIDPWERKSYWKNMLEAVHTIHQHGIVHSDLKPANFLIVDGMLKLIDFGIANQMQPDTTSVVKDSQVGTVNYMPPEAIKDMSSSRENGKSKSKISPKSDVWSLGCILYYMTYGKTPFQQIINQISKLHAIIDPNHEIEFPDIPEKDLQDVLKCCLKRDPKQRISIPELLAHPYVQIQTHPVNQMAKGTTEEMKYVLGQLVGLNSPNSILKAAKTLYEHYSGGESHNSSSSKTFEKKRGKK

Biological target: recombinant PHB2
Sequence (chain, as listed by the source): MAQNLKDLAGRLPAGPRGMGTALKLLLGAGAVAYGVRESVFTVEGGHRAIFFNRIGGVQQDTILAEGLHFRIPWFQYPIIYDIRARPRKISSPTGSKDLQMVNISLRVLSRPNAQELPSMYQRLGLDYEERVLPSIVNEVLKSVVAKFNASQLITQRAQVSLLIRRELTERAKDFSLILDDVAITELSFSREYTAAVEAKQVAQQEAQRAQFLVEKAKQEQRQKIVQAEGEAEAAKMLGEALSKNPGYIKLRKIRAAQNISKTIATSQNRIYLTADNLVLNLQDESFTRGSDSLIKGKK

| Protein | phosphorylation of PHB2 (Phos-tag SDS-PAGE), molar ratio PHB2:MK5=1:0.25 | phosphorylation of PHB2 (Phos-tag SDS-PAGE), molar ratio PHB2:MK=1:2 or more | phosphorylation of PHB2 (Phos-tag SDS-PAGE), molar ratio PHB2:TTK=1:2 or greater | phosphorylation of PHB2 (Phos-tag SDS-PAGE), molar ratio TTK:PHB2 1:1 |
| --- | --- | --- | --- | --- |
| B1 | 6.5% phosphorylation | a band for 75% phosphorylation was detected |  |  |
| B2 |  |  | a band for 75% phosphorylation was clearly detected | 28% phosphorylation |
